Assay results published in patent US20220363752A1 (VERSEAU THERAPEUTICS, published 2022).

Tests used:
[1] = target: T1, His-tagged cynomolgus monkey LRRC25 extracellular domain protein, cyno LRRC25-His (cynomolgus monkey); assay: ELISA, plate-immobilized antigen
T1 construct: The entry holds the extracellular domain, a GSG linker and the His tag
In short: (§1)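 Wells coated overnight at 4 °C with 1 ug/mL antigen in PBS pH 7.4. Antibodies titrated from 500 nM in 3-fold steps in 1% skimmed milk/PBS, 1 h at room temperature, then HRP anti-human IgG; TMB read at A450 nm and EC50 taken from binding curves.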

[2] = target: T2, His-tagged human LRRC25 extracellular domain protein, human LRRC25-His (human, UniProt Q8N386 21-165); assay: ELISA, plate-immobilized antigen
T2 construct: The entry holds the extracellular domain, a GSG linker and the His tag; also called LRRC25(ECD)-HIS
T2 sequence (Q8N386 other isoform, or with tags, fused parts or gaps): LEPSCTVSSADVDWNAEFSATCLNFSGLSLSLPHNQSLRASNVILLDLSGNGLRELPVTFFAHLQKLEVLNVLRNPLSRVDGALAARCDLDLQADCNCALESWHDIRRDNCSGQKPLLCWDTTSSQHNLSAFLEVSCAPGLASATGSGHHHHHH
In short: as §1

[3] = target: T1, His-tagged cynomolgus monkey LRRC25 …; assay: ELISA, antibody titrated on plate-immobilized Cyno LRRC25(ECD)-His, A450nm against -log [IgG] (M), right panel
Method: (§2) To establish the relative binding strengths of anti-LRRC25 antibodies against human LRRC25, and their cross-reactivity with cynomolgus monkey LRRC25, antibody binding curve analyses were performed and EC50 values against plate-immobilized recombinant human and cyno LRRC25 proteins were determined.
(§3) A typical ELISA was performed by coating overnight in PBS, pH 7.4, at 4° C. in high binding microtiter wells with 1 ug/mL/100 ul per well of human LRRC25-His or cyno LRRC25-His. An anti-human LRRC25 antibody (2A3, LS Bio, LS-C174039-100) and anti-HIS-HRP (Miltenyi Biotec; 130-092-783) served as coating controls for the human and cyno LRRC25 proteins, respectively. […] Anti-LRRC25 antibodies were added (100 ul per well) at 500 nM and serially diluted 3-fold in assay buffer (1% skimmed milk in PBS, pH 7.4). The plate was incubated with gentle agitation for 1 h at room temperature. The plate was washed 3× and HRP-conjugated secondary antibody in assay buffer added [100 ul per well; goat anti-human IgG (Jackson Immunoresearch, cat #715-035-150)], and the plate was incubated as before. Antibody bound to plate-immobilized LRRC25(ECD)-HIS was determined at A450 nm using HRP substrate (3,3′,5,5′-tetramethylbenzidine (TMB); eBioscience; 00-4201-56); 100 μl/well).

[4] = target: T2, His-tagged human LRRC25 extracellular …; assay: ELISA, antibody titrated on plate-immobilized Human LRRC25(ECD)-His, A450nm against -log [IgG] (M), left panel
Method: as §2, §3

[5] = target: T3, LRRC25(81-100) biotin peptide (human, not fully specified; N-terminal acetyl; C-terminal GGK-Biotin); assay: ELISA, 20 nM antibody, biotinylated antigen on streptavidin plate
T3 peptide: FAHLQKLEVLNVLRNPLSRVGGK
In short: (§4)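 Plate-bound streptavidin captured biotinylated 16- to 20-mer LRRC25 ECD overlapping peptides (2 ug/mL), with biotinylated human LRRC25-His as positive control. Chimeric anti-LRRC25 antibodies at 20 nM, 45 min at 37° C in duplicate; detection by HRP anti-human IgG and TMB at A450 nm.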

[6] = target: T4, LRRC25(96-115) biotin peptide (human, not fully specified; N-terminal acetyl; C-terminal GGK-Biotin; native Cys changed to Ser); assay: as above
T4 construct: also called Biotin LRRC25 (96-115) peptide
T4 peptide: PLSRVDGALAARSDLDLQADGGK
In short: as §4

[7] = target: T5, biotinylated human LRRC25-His protein (human, UniProt Q8N386 21-165, biotinylated (sites not given)); assay: as above
T5 construct: also called Biotin LRRC25-His; biotinylated LRRC25 protein
T5 sequence (Q8N386 other isoform, or with tags, fused parts or gaps): as the sequence (Q8N386 other isoform, or with tags, fused parts or gaps) above
In short: as §4

T1 sequence (chain, as listed by the source limits assumed): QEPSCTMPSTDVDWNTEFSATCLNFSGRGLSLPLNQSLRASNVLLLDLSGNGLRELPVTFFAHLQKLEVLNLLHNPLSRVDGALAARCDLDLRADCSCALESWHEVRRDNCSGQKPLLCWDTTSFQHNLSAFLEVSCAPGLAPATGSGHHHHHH

B1: anti-LRRC25 chimeric antibody 2D09 (antibody, human IgG4, V domains shown)
VH: QVTLKESGPGTVQPSQTLSLTCSFSGFSLSTSGMGVSWIRQSSGKGLEWLAHIYWDDDKRYNPSLKSRLTISKDTSSNQVFLRITSVDTADTATYYCARRPRDFYGGGHWYFDVWGAGTTVTVSS
VL: DVVMTQTPKSMSMSVGERVTLNCKASENVGTYVSWYQQKPEQSPKLLIYGASNRYTGVPDRFTGSGSATDFTLTISSMQAEDLADYHCGQSYNFPLTFGAGTKLELKR
notes: also called mAb 2D09; MAb 2D09
In the case of B1, the EC50 [1] is reported as 0.68 nM, the EC50 [2] is reported as 1.2 nM and the “EC50 (read off the curve)” value [3] is reported as about 0.7 nM. The “EC50 (read off the curve)” value [4] was about 1 nM, the “absorbance (A450)” value [5] was 0.676 A450 and the “fold lower assay signal than with the biotinylated LRRC25 protein” value [5] was about 4 fold. For the same binder, the “absorbance (A450)” value [6] was 0.095 A450 and the “absorbance (A450)” value [7] was 2.5 A450.
